Data reported in patent US20220125891A1 (OSAKA UNIVERSITY, published 2022).
Positions of bridges follow the written chain, without caps; N, C: chain ends. Non-standard residues stand in square brackets, D forms with d. No end group written: not given here. NMeA = CN[C@@H](C)C(=O)O; dNMeA = CN[C@H](C)C(=O)O

T1: full-length human Regnase-1 with a FLAG tag on the N-terminal side and a biotin ligase BirA recognition … (human, UniProt Q5D1E8 1-599, biotinylated where required ; Biotinylated at the BirA recognition sequence where required. That sequence is not in the letters.)
T1 sequence: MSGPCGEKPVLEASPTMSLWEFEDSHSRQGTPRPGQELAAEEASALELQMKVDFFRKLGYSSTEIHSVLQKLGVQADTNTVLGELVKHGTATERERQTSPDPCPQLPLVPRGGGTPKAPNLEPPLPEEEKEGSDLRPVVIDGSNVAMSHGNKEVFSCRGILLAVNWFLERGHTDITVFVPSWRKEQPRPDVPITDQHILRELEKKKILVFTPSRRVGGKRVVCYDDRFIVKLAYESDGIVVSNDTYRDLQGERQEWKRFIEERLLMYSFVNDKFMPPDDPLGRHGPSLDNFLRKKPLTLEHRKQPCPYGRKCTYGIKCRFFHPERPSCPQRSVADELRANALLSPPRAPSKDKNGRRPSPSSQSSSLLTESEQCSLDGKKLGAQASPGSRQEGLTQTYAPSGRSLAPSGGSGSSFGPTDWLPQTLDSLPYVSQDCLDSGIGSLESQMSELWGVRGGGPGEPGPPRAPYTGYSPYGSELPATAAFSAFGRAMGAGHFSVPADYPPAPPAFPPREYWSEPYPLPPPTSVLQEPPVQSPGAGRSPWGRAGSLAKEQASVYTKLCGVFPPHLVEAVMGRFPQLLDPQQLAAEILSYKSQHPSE

T2: Reg1_301-599 (human Regnase-1 amino acids 301 to 599, FLAG tag on the N-terminal side, BirA recognition … (human))
T2 sequence (Q5D1E8 301-599, looked up): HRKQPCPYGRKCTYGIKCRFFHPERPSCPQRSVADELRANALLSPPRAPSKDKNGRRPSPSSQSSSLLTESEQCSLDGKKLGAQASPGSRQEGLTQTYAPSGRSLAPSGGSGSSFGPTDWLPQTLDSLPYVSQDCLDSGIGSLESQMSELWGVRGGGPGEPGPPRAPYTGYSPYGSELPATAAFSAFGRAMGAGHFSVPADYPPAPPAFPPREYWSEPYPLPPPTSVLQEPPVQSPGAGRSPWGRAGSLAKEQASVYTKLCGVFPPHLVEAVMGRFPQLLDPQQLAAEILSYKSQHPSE


These binders were tested against T1, full-length human Regnase-1 with a FLAG … (assay: cell-based or functional assay).

| Binder | IC50, phosphorylation by IKKβ [µM] | IC50, phosphorylation by TBK1 [µM] |
| --- | --- | --- |
| [NMeA]HSNAWYNIWD (lactam N-11) [PP5] | 23.6 | 24.2 |
| [dNMeA]PNSSWFKIWD (lactam N-11) [PP6] | 17 | 13.1 |
| [NMeA]GYANSWYNIWD (lactam N-12) [PP2] | 16.6 | 21.7 |

Other lines, results leading:

| IC50, phosphorylation by IKKβ [µM] | IC50, phosphorylation by TBK1 [µM] | Binder |
| --- | --- | --- |
| 28.1 | 54.5 | [NMeA]TSWYKVNWGQD (lactam N-12) [PP1] |
| 4.6 | 3.9 | [dNMeA]KHASAWYRIWD (lactam N-12) [PP3] |

These binders were tested against T3, ΔCTD_Reg1 (human Regnase-1 amino acids 1 to 546, FLAG tag on the N-terminal side, BirA recognition sequence … (human)) (assay: cell-based or functional assay).

| Binder | IC50, phosphorylation by IKKβ [µM] | IC50, phosphorylation by TBK1 [µM] |
| --- | --- | --- |
| [NMeA]HSNAWYNIWD (lactam N-11) [PP5] | 20.4 | 19.1 |
| [dNMeA]PNSSWFKIWD (lactam N-11) [PP6] | 20.3 | 14.5 |
| [NMeA]GYANSWYNIWD (lactam N-12) [PP2] | 14 | 17.6 |

The remaining lines, values ahead:

| IC50, phosphorylation by IKKβ [µM] | IC50, phosphorylation by TBK1 [µM] | Binder |
| --- | --- | --- |
| > 62.1 | > 62.1 | [NMeA]TSWYKVNWGQD (lactam N-12) [PP1] |
| 8.3 | 5.7 | [dNMeA]KHASAWYRIWD (lactam N-12) [PP3] |

Molecular target: T1, full-length human Regnase-1 with a FLAG …
Experiment: cell-based or functional assay
Remark: another data set of the same source

| Binder | IC50, phosphorylation by TBK1 [µM] |
| --- | --- |
| [NMeA]HSNAWYNIWD (lactam N-11) [PP5] | 24.2 |
| [dNMeA]PNSSWFKIWD (lactam N-11) [PP6] | 13.1 |
| [NMeA]GYANSWYNIWD (lactam N-12) [PP2] | 21.7 |

The next lines start with the values.

| IC50, phosphorylation by TBK1 [µM] | Binder |
| --- | --- |
| 54.5 | [NMeA]TSWYKVNWGQD (lactam N-12) [PP1] |
| 3.9 | [dNMeA]KHASAWYRIWD (lactam N-12) [PP3] |

Molecular target: T3, ΔCTD_Reg1 (human Regnase-1 amino acids …)
Experiment: cell-based or functional assay
Remark: another data set of the same source

| Binder | IC50, phosphorylation by TBK1 [µM] |
| --- | --- |
| [NMeA]HSNAWYNIWD (lactam N-11) [PP5] | 19.1 |
| [dNMeA]PNSSWFKIWD (lactam N-11) [PP6] | 14.5 |
| [NMeA]GYANSWYNIWD (lactam N-12) [PP2] | 17.6 |

More lines, now with the values ahead:

| IC50, phosphorylation by TBK1 [µM] | Binder |
| --- | --- |
| > 62.1 | [NMeA]TSWYKVNWGQD (lactam N-12) [PP1] |
| 5.7 | [dNMeA]KHASAWYRIWD (lactam N-12) [PP3] |

Each binder was assayed against T2, Reg1_301-599 (human Regnase-1 amino …) (assay: cell-based or functional assay).

| Binder | IC50, phosphorylation by TBK1 [µM] |
| --- | --- |
| [NMeA]HSNAWYNIWD (lactam N-11) [PP5] | 40.4 |
| [dNMeA]PNSSWFKIWD (lactam N-11) [PP6] | 16.8 |
| [NMeA]GYANSWYNIWD (lactam N-12) [PP2] | 22.4 |

Now from value to binder:

| IC50, phosphorylation by TBK1 [µM] | Binder |
| --- | --- |
| > 62.1 | [NMeA]TSWYKVNWGQD (lactam N-12) [PP1] |
| 7.1 | [dNMeA]KHASAWYRIWD (lactam N-12) [PP3] |

Molecular target: T1, full-length human Regnase-1 with a FLAG …
Experiment: cell-based or functional assay
Remark: another data set of the same source

| Binder | IC50, phosphorylation by IKKβ [µM] |
| --- | --- |
| [NMeA]HSNAWYNIWD (lactam N-11) [PP5] | 23.6 |
| [dNMeA]PNSSWFKIWD (lactam N-11) [PP6] | 17 |
| [NMeA]GYANSWYNIWD (lactam N-12) [PP2] | 16.6 |

Second part, the binder after the results:

| IC50, phosphorylation by IKKβ [µM] | Binder |
| --- | --- |
| 28.1 | [NMeA]TSWYKVNWGQD (lactam N-12) [PP1] |
| 4.6 | [dNMeA]KHASAWYRIWD (lactam N-12) [PP3] |

Molecular target: T3, ΔCTD_Reg1 (human Regnase-1 amino acids …)
Experiment: cell-based or functional assay
Remark: another data set of the same source

| Binder | IC50, phosphorylation by IKKβ [µM] |
| --- | --- |
| [NMeA]HSNAWYNIWD (lactam N-11) [PP5] | 20.4 |
| [dNMeA]PNSSWFKIWD (lactam N-11) [PP6] | 20.3 |
| [NMeA]GYANSWYNIWD (lactam N-12) [PP2] | 14 |

The next lines start with the values.

| IC50, phosphorylation by IKKβ [µM] | Binder |
| --- | --- |
| > 62.1 | [NMeA]TSWYKVNWGQD (lactam N-12) [PP1] |
| 8.3 | [dNMeA]KHASAWYRIWD (lactam N-12) [PP3] |

Molecular target: T2, Reg1_301-599 (human Regnase-1 amino …)
Experiment: cell-based or functional assay
Remark: another data set of the same source

| Binder | IC50, phosphorylation by IKKβ [µM] |
| --- | --- |
| [NMeA]HSNAWYNIWD (lactam N-11) [PP5] | 31.3 |
| [dNMeA]PNSSWFKIWD (lactam N-11) [PP6] | 17.5 |
| [NMeA]GYANSWYNIWD (lactam N-12) [PP2] | 18.5 |

Next, values leading:

| IC50, phosphorylation by IKKβ [µM] | Binder |
| --- | --- |
| > 62.1 | [NMeA]TSWYKVNWGQD (lactam N-12) [PP1] |
| 6.8 | [dNMeA]KHASAWYRIWD (lactam N-12) [PP3] |

These binders were tested against T1, full-length human Regnase-1 with a FLAG … (assay: AlphaScreen, blocks IKKβ binding to FL_Reg1).

| Binder | IC50 [µM] |
| --- | --- |
| [NMeA]HSNAWYNIWD (lactam N-11) [PP5] | 24 |
| [dNMeA]PNSSWFKIWD (lactam N-11) [PP6] | 42.1 |
| [NMeA]GYANSWYNIWD (lactam N-12) [PP2] | 35.8 |

Results, then the binder that gave them:

| IC50 [µM] | Binder |
| --- | --- |
| > 62.1 | [NMeA]TSWYKVNWGQD (lactam N-12) [PP1] |
| 8.3 | [dNMeA]KHASAWYRIWD (lactam N-12) [PP3] |

What follows are binders tested against T1, full-length human Regnase-1 with a FLAG … (assay: AlphaScreen, blocks TBK1 binding to FL_Reg1).

| Binder | IC50 [µM] |
| --- | --- |
| [NMeA]HSNAWYNIWD (lactam N-11) [PP5] | 11.5 |
| [dNMeA]PNSSWFKIWD (lactam N-11) [PP6] | 19.2 |
| [NMeA]GYANSWYNIWD (lactam N-12) [PP2] | 15.5 |

Continued, values first:

| IC50 [µM] | Binder |
| --- | --- |
| > 62.1 | [NMeA]TSWYKVNWGQD (lactam N-12) [PP1] |
| 3.1 | [dNMeA]KHASAWYRIWD (lactam N-12) [PP3] |

Molecular target: T1, full-length human Regnase-1 with a FLAG …
Experiment: AlphaScreen, blocks TBK1 binding to FL_Reg1
Remark: another data set of the same source

| Binder | IC50 [µM] |
| --- | --- |
| [NMeA]HSNAWYNIWD (lactam N-11) [PP5] | 11.5 |
| [dNMeA]PNSSWFKIWD (lactam N-11) [PP6] | 19.2 |
| [NMeA]GYANSWYNIWD (lactam N-12) [PP2] | 15.5 |

Further lines, results first:

| IC50 [µM] | Binder |
| --- | --- |
| > 62.1 | [NMeA]TSWYKVNWGQD (lactam N-12) [PP1] |
| 3.1 | [dNMeA]KHASAWYRIWD (lactam N-12) [PP3] |

Molecular target: T1, full-length human Regnase-1 with a FLAG …
Experiment: AlphaScreen, blocks IKKβ binding to FL_Reg1
Remark: another data set of the same source

| Binder | IC50 [µM] |
| --- | --- |
| [NMeA]HSNAWYNIWD (lactam N-11) [PP5] | 24 |
| [dNMeA]PNSSWFKIWD (lactam N-11) [PP6] | 42.1 |
| [NMeA]GYANSWYNIWD (lactam N-12) [PP2] | 35.8 |

Results, then the binder that gave them:

| IC50 [µM] | Binder |
| --- | --- |
| > 62.1 | [NMeA]TSWYKVNWGQD (lactam N-12) [PP1] |
| 8.3 | [dNMeA]KHASAWYRIWD (lactam N-12) [PP3] |

Each binder was assayed against T1, full-length human Regnase-1 with a FLAG … (assay: affinity selection-MS (SEC, LC/MS), 1 µM each).

| Binder | AS-MS ratio(%) |
| --- | --- |
| [NMeA]HSNAWYNIWD (lactam N-11) [PP5] | 20.8 |
| [dNMeA]PNSSWFKIWD (lactam N-11) [PP6] | 6.4 |
| [NMeA]GYANSWYNIWD (lactam N-12) [PP2] | 14.2 |

Continued, values first:

| AS-MS ratio(%) | Binder |
| --- | --- |
| 21.8 | [NMeA]TSWYKVNWGQD (lactam N-12) [PP1] |
| 1.2 | [dNMeA]KHASAWYRIWD (lactam N-12) [PP3] |
